# Laboratory results as given in patent US20060257938A1, “Method of screening for drugs that block ligand binding to a lipid binding protein” (priority 2005, published 2006).
# Experiments:
# Format in all cases: binding
# [1] = Probe fluorescence ratio response to arachidonic acid relative to ADIFAB2; settings: Arachidonic acid; response relative to ADIFAB2
# Procedure, shortened: (§1)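 Fluorescently labeled rat intestinal FABP variants were read at two emission wavelengths, near the unbound maximum (about 420 to 480 nm) and the FFA-bound maximum (about 495 to 580 nm). R = Fλ1/Fλ2 after subtracting probe-free intensity; ΔR = R+agent − R0, normalized to ADIFAB2 (rI-FABP-L72A).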
# [2] = Probe fluorescence ratio response to linolenic acid relative to ADIFAB2; settings: response relative to ADIFAB2
# Procedure, shortened: as §1
# [3] = Probe fluorescence ratio response to linoleic acid relative to ADIFAB2; settings: response relative to ADIFAB2
# Procedure, shortened: as §1
# [4] = Probe fluorescence ratio response to oleic acid relative to ADIFAB2; settings: response relative to ADIFAB2
# Procedure, shortened: as §1
# [5] = Probe fluorescence ratio response to palmitic acid relative to ADIFAB2; settings: response relative to ADIFAB2
# Procedure, shortened: as §1
Molecule,DR/DR AA [1],DR/DR LNA [2],DR/DR LA [3],DR/DR OA [4],DR/DR PA [5]
"49T1, 72A (protein, listed as Rattus norvegicus, PEPTIDE (1)...(131) wild-type rat intestinal fatty acid binding protein) AFDGTWKVDRNENYEKFMEKMGINVVKRKLGAHDNLKLTITQEGNKFTTKESSNFRNIDVVFELGVDFAYSAADGTELTGTWTMEGNKLVGKFKRVDNGKELIAVREISGNELIQTYTYEGVEAKRIFKKE",0.66,0.64,0.67,0.67,0.43
"51S1, 72A (protein, listed as Rattus norvegicus, PEPTIDE (1)...(131) wild-type rat intestinal fatty acid binding protein) AFDGTWKVDRNENYEKFMEKMGINVVKRKLGAHDNLKLTITQEGNKFTVKSSSNFRNIDVVFELGVDFAYSAADGTELTGTWTMEGNKLVGKFKRVDNGKELIAVREISGNELIQTYTYEGVEAKRIFKKE",1.64,1.66,1.78,1.61,0.80
"51C3, 72A (protein, listed as Rattus norvegicus, PEPTIDE (1)...(131) wild-type rat intestinal fatty acid binding protein) AFDGTWKVDRNENYEKFMEKMGINVVKRKLGAHDNLKLTITQEGNKFTVKCSSNFRNIDVVFELGVDFAYSAADGTELTGTWTMEGNKLVGKFKRVDNGKELIAVREISGNELIQTYTYEGVEAKRIFKKE",1.44,1.47,1.55,1.35,0.69
"51Q1, 72A (protein, listed as Rattus norvegicus, PEPTIDE (1)...(131) wild-type rat intestinal fatty acid binding protein) AFDGTWKVDRNENYEKFMEKMGINVVKRKLGAHDNLKLTITQEGNKFTVKQSSNFRNIDVVFELGVDFAYSAADGTELTGTWTMEGNKLVGKFKRVDNGKELIAVREISGNELIQTYTYEGVEAKRIFKKE",1.56,1.65,1.63,1.43,0.73
"51R1, 72A (protein, listed as Rattus norvegicus, PEPTIDE (1)...(131) wild-type rat intestinal fatty acid binding protein) AFDGTWKVDRNENYEKFMEKMGINVVKRKLGAHDNLKLTITQEGNKFTVKRSSNFRNIDVVFELGVDFAYSAADGTELTGTWTMEGNKLVGKFKRVDNGKELIAVREISGNELIQTYTYEGVEAKRIFKKE",1.50,1.56,1.56,1.35,0.73
"51G1, 72A (protein, listed as Rattus norvegicus, PEPTIDE (1)...(131) wild-type rat intestinal fatty acid binding protein) AFDGTWKVDRNENYEKFMEKMGINVVKRKLGAHDNLKLTITQEGNKFTVKGSSNFRNIDVVFELGVDFAYSAADGTELTGTWTMEGNKLVGKFKRVDNGKELIAVREISGNELIQTYTYEGVEAKRIFKKE",1.64,1.76,1.71,1.57,0.78
"51A1, 72A (protein, listed as Rattus norvegicus, PEPTIDE (1)...(131) wild-type rat intestinal fatty acid binding protein) AFDGTWKVDRNENYEKFMEKMGINVVKRKLGAHDNLKLTITQEGNKFTVKASSNFRNIDVVFELGVDFAYSAADGTELTGTWTMEGNKLVGKFKRVDNGKELIAVREISGNELIQTYTYEGVEAKRIFKKE",1.38,1.49,1.48,1.28,0.70
"51F1, 72A (protein, listed as Rattus norvegicus, PEPTIDE (1)...(131) wild-type rat intestinal fatty acid binding protein) AFDGTWKVDRNENYEKFMEKMGINVVKRKLGAHDNLKLTITQEGNKFTVKFSSNFRNIDVVFELGVDFAYSAADGTELTGTWTMEGNKLVGKFKRVDNGKELIAVREISGNELIQTYTYEGVEAKRIFKKE",1.64,1.60,1.70,1.47,0.76
"49Y1, 72A (protein, listed as Rattus norvegicus, PEPTIDE (1)...(131) wild-type rat intestinal fatty acid binding protein) AFDGTWKVDRNENYEKFMEKMGINVVKRKLGAHDNLKLTITQEGNKFTYKESSNFRNIDVVFELGVDFAYSAADGTELTGTWTMEGNKLVGKFKRVDNGKELIAVREISGNELIQTYTYEGVEAKRIFKKE",1.39,1.44,1.51,1.34,0.70
"51D1, 72A (protein, listed as Rattus norvegicus, PEPTIDE (1)...(131) wild-type rat intestinal fatty acid binding protein) AFDGTWKVDRNENYEKFMEKMGINVVKRKLGAHDNLKLTITQEGNKFTVKDSSNFRNIDVVFELGVDFAYSAADGTELTGTWTMEGNKLVGKFKRVDNGKELIAVREISGNELIQTYTYEGVEAKRIFKKE",1.34,1.39,1.38,1.28,0.68
"51N1, 72A (protein, listed as Rattus norvegicus, PEPTIDE (1)...(131) wild-type rat intestinal fatty acid binding protein) AFDGTWKVDRNENYEKFMEKMGINVVKRKLGAHDNLKLTITQEGNKFTVKNSSNFRNIDVVFELGVDFAYSAADGTELTGTWTMEGNKLVGKFKRVDNGKELIAVREISGNELIQTYTYEGVEAKRIFKKE",1.38,1.39,1.46,1.26,0.73
"51H1, 72A (protein, listed as Rattus norvegicus, PEPTIDE (1)...(131) wild-type rat intestinal fatty acid binding protein) AFDGTWKVDRNENYEKFMEKMGINVVKRKLGAHDNLKLTITQEGNKFTVKHSSNFRNIDVVFELGVDFAYSAADGTELTGTWTMEGNKLVGKFKRVDNGKELIAVREISGNELIQTYTYEGVEAKRIFKKE",1.52,1.58,1.64,0.58,0.81
"51K1, 72A (protein, listed as Rattus norvegicus, PEPTIDE (1)...(131) wild-type rat intestinal fatty acid binding protein) AFDGTWKVDRNENYEKFMEKMGINVVKRKLGAHDNLKLTITQEGNKFTVKKSSNFRNIDVVFELGVDFAYSAADGTELTGTWTMEGNKLVGKFKRVDNGKELIAVREISGNELIQTYTYEGVEAKRIFKKE",1.00,1.02,−0.01,1.01,0.56
"51P3, 72A (protein, listed as Rattus norvegicus, PEPTIDE (1)...(131) wild-type rat intestinal fatty acid binding protein) AFDGTWKVDRNENYEKFMEKMGINVVKRKLGAHDNLKLTITQEGNKFTVKPSSNFRNIDVVFELGVDFAYSAADGTELTGTWTMEGNKLVGKFKRVDNGKELIAVREISGNELIQTYTYEGVEAKRIFKKE",1.42,1.48,1.42,1.21,0.72
"49W1, 72A (protein, listed as Rattus norvegicus, PEPTIDE (1)...(131) wild-type rat intestinal fatty acid binding protein) AFDGTWKVDRNENYEKFMEKMGINVVKRKLGAHDNLKLTITQEGNKFTWKESSNFRNIDVVFELGVDFAYSAADGTELTGTWTMEGNKLVGKFKRVDNGKELIAVREISGNELIQTYTYEGVEAKRIFKKE",0.58,0.58,0.58,0.56,0.35
"51L3, 72A (protein, listed as Rattus norvegicus, PEPTIDE (1)...(131) wild-type rat intestinal fatty acid binding protein) AFDGTWKVDRNENYEKFMEKMGINVVKRKLGAHDNLKLTITQEGNKFTVKLSSNFRNIDVVFELGVDFAYSAADGTELTGTWTMEGNKLVGKFKRVDNGKELIAVREISGNELIQTYTYEGVEAKRIFKKE",1.64,1.66,1.65,1.45,0.76
"51I1, 72A (protein, listed as Rattus norvegicus, PEPTIDE (1)...(131) wild-type rat intestinal fatty acid binding protein) AFDGTWKVDRNENYEKFMEKMGINVVKRKLGAHDNLKLTITQEGNKFTVKISSNFRNIDVVFELGVDFAYSAADGTELTGTWTMEGNKLVGKFKRVDNGKELIAVREISGNELIQTYTYEGVEAKRIFKKE",1.50,1.62,1.55,1.41,0.72
